Test [1] concerns the target human full-length kindlin-2, from Sf9 insect cells (monomer) (human) (UniProt Q96AC1). Description: ITC; MicroCal PEAQ-ITC, 25 °C, 50 mM HEPES pH 7.5, 150 mM NaCl; 500 μM ITGB1 tail injected into 50 μM monomer or trimer kindlin. (Isothermal titration calorimetry measures the heat released or taken up as one component is titrated into another.)
For test [2], the target named is human full-length kindlin-3, wild type, from Sf9 insect cells (monomer) (human, UniProt Q86UX7 1-667). The description is as above. The conditions noted are these: both partners purified.
human full-length kindlin-3, wild type, from Sf9 insect cells (monomer), sequence (Q86UX7 whole entry): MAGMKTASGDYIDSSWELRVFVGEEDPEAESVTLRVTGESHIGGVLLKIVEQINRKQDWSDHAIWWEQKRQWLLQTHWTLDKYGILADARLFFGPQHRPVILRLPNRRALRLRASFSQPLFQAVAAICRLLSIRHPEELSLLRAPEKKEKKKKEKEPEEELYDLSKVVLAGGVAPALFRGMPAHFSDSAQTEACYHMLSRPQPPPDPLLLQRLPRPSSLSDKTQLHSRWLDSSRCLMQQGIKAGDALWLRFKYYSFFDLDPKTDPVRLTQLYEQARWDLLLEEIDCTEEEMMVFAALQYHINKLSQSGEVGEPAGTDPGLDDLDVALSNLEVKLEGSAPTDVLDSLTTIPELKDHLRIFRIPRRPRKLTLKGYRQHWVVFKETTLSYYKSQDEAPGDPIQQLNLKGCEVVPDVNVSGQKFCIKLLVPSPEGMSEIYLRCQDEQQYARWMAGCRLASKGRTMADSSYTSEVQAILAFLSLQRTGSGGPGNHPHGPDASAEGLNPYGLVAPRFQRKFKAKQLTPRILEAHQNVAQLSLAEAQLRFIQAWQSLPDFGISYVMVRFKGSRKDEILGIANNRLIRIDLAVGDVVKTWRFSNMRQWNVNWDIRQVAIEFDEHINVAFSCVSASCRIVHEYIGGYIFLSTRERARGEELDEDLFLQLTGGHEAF
Test [3] concerns the target T1, human full-length kindlin-2, from Sf9 insect cells (monomer) (human), Q96AC1.
T1 chain: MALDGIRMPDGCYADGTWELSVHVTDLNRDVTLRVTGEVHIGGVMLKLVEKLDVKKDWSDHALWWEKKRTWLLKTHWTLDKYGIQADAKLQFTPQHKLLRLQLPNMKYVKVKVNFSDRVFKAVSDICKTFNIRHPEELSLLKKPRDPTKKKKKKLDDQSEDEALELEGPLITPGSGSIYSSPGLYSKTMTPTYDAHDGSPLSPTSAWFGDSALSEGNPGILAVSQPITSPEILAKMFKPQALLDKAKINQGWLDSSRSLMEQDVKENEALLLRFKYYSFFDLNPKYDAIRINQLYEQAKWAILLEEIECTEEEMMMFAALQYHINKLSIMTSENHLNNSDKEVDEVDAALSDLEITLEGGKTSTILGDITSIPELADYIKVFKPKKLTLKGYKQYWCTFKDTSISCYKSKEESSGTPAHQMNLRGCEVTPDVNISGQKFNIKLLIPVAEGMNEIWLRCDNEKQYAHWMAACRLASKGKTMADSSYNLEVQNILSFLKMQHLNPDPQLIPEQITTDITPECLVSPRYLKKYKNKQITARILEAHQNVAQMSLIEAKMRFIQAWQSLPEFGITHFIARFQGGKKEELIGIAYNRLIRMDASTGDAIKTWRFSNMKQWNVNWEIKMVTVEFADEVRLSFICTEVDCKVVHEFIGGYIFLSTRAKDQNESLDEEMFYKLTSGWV
Description: SEC; analytical gel filtration, Superdex 200 Increase 10/300 GL, 20 mM Tris-HCl pH 7.5, 150 mM NaCl, calibrated with HMW kit. The settings on record: remark: other sources report otherwise. (In general: SEC sorts molecules by how far they enter the pores of the column.)

The target in test [4] is T1, human full-length kindlin-2, from Sf9 …. The test is described as follows: SEC-MALS; Superdex 200 increase 5/150 GL, 20 mM HEPES pH 7.5, 500 mM NaCl, at least 2 mg/mL. The settings on record: remark: other sources report otherwise.

B1: human integrin β1 cytoplasmic tail (ITGB1 residues 773–798) (domain or fragment, UniProt P05556-1 773-798, looked up)
chain: AKWDTGENPIYKSAVTTVVNPKYEGK
notes: integrin beta-1, human, cytoplasmic tail residues 773-798; pNH-TrxT, N-terminal cleavable 6xHis thioredoxin tag; no cleavage step is described and the ITC control was the His-Trx tag alone, so the tag was probably kept (surmise); also called ITGB1 tail; integrin β1 tail
As for B1, the figures for the Kd in test [1] and in test [2] were 13.4 µM and around 200 µM, respectively.

B2: human full-length kindlin-2, from Sf9 insect cells (monomer), Q96AC1 1-680 (natural protein)
chain: T1 chain
For B2, the stoichiometry N in test [3] and in test [4] was 3 throughout.

Usually Kd stands for the free concentration of one partner at which half of the binding sites on the other are occupied at equilibrium, for simple one-to-one binding. A low value points to a tighter complex. In general, stoichiometry N refers to the number of molecules, sites or subunits per partner or assembly.

The values above are taken from article PMC7373317, “Structural basis of human full-length kindlin-3 homotrimer in an auto-inhibited state” (PLoS Biology, 2020).
